This passage reports neutralisation of the autologous tier 2 1157ipd3N4 pseudovirus on TZM-bl cells, IC50 results from article PMC9130890.

This assay addresses autologous SHIV_(1157ipd3N4) gp120 monomer (SHIV_(1157ipd3N4)).

B1: unmutated common ancestor (UCA) of the J038 lineage (antibody, V domains shown)
VH: QLQLQESGPGLVKPSETLSLTCAVSGGSISSNYWSWIRQPPGKGLEWIGRISGSGGSTDYNPSLKSRVTISTDTSKNQFSLKLSSVTAADTAVYYCAREVAEDDYGYYQPYFDYWGQGVLVTVSS
VL: DIQMTQSPSSLSASVGDRVTITCRASQGISSYLAWYQQKPGKAPKLLIYAASSLQSGVPSRFSGSGSGTDFTLTISSLQPEDFATYYCQQYNSLPLTFGGGTKVEIK
B1 gave a neutralisation of the autologous tier 2 1157ipd3N4 pseudovirus on TZM-bl cells, IC50 of 4.97 µg mL^−1.
